Experimental data from the supplement of paper PMC9112550, “Optimization of the antimicrobial peptide Bac7 by deep mutational scanning” (BMC Biology, 2022).

tested on: Escherichia coli TOP10; test: shrunken log2 fold change of peptide-encoding DNA abundance (4.5 h post-induction vs induction); higher = less antimicrobial activity (less host growth inhibition); conditions: time post-induction: 4.5 h; library: site-saturation at positions 5, 18, 19, 20
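Note: peptides expressed intracellularly from a pBAD plasmid library in pooled LB shake-flask culture, induced with 0.3% L-arabinose, DNA abundance read by NGS, three biological replicates, DESeq2 with apeglm shrinkage.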

Sequence	shrunken log2 fold change
RRIRMRPPRLPRPRPRPVNRPRP	0.105
RRIRMRPPRLPRPRPRPVPHPRP	0.537
RRIRMRPPRLPRPRPRPVQMPRP	0.247
RRIRMRPPRLPRPRPRPVRGPRP	1.18
RRIRMRPPRLPRPRPRPVRNPRP	0.0163
RRIRMRPPRLPRPRPRPVSRPRP	0.796
RRIRMRPPRLPRPRPRPVTLPRP	-0.393
RRIRMRPPRLPRPRPRPVVDPRP	0.0138
RRIRMRPPRLPRPRPRPVVLPRP	0.272
RRIRMRPPRLPRPRPRPVYPPRP	0.166
RRIRMRPPRLPRPRPRPWCGPRP	0.134
RRIRMRPPRLPRPRPRPWCMPRP	-0.0453
RRIRMRPPRLPRPRPRPWCRPRP	0.0521
RRIRMRPPRLPRPRPRPWCSPRP	-0.075
RRIRMRPPRLPRPRPRPWDDPRP	0.533
RRIRMRPPRLPRPRPRPWDFPRP	0.121
RRIRMRPPRLPRPRPRPWGYPRP	0.101
RRIRMRPPRLPRPRPRPWLIPRP	0.0295
RRIRMRPPRLPRPRPRPWLQPRP	-0.000921
RRIRMRPPRLPRPRPRPWLVPRP	0.0862
RRIRMRPPRLPRPRPRPWLWPRP	0.0882
RRIRMRPPRLPRPRPRPWMNPRP	-0.00973
RRIRMRPPRLPRPRPRPWNYPRP	-0.203
RRIRMRPPRLPRPRPRPWPSPRP	0.034
RRIRMRPPRLPRPRPRPWQQPRP	-0.0113

Sequence	shrunken log2 fold change
RRIRMRPPRLPRPRPRPWRMPRP	0.0682
RRIRMRPPRLPRPRPRPWRPPRP	0.308
RRIRMRPPRLPRPRPRPWTFPRP	0.055
RRIRMRPPRLPRPRPRPWTPPRP	0.28
RRIRMRPPRLPRPRPRPWTTPRP	-0.0163
RRIRMRPPRLPRPRPRPWTWPRP	-0.0795
RRIRMRPPRLPRPRPRPWVFPRP	0.152
RRIRMRPPRLPRPRPRPWYCPRP	-0.336
RRIRMRPPRLPRPRPRPWYGPRP	-0.0162
RRIRMRPPRLPRPRPRPYAGPRP	-0.0412
RRIRMRPPRLPRPRPRPYAMPRP	-0.155
RRIRMRPPRLPRPRPRPYAVPRP	-0.0789
RRIRMRPPRLPRPRPRPYCFPRP	-0.28
RRIRMRPPRLPRPRPRPYCSPRP	-0.122
RRIRMRPPRLPRPRPRPYEAPRP	0.029
RRIRMRPPRLPRPRPRPYEEPRP	-0.228
RRIRMRPPRLPRPRPRPYEQPRP	-0.222
RRIRMRPPRLPRPRPRPYESPRP	0.107
RRIRMRPPRLPRPRPRPYGAPRP	-0.105
RRIRMRPPRLPRPRPRPYGVPRP	-0.147
RRIRMRPPRLPRPRPRPYHIPRP	-0.69
RRIRMRPPRLPRPRPRPYIIPRP	-0.151
RRIRMRPPRLPRPRPRPYKKPRP	-0.161
RRIRMRPPRLPRPRPRPYKWPRP	-0.141
RRIRMRPPRLPRPRPRPYLPPRP	-0.78

Sequence	shrunken log2 fold change
RRIRMRPPRLPRPRPRPYLSPRP	-0.0214
RRIRMRPPRLPRPRPRPYQWPRP	-0.055
RRIRMRPPRLPRPRPRPYRIPRP	-0.0176
RRIRMRPPRLPRPRPRPYRYPRP	-0.133
RRIRMRPPRLPRPRPRPYSWPRP	-0.0788
RRIRMRPPRLPRPRPRPYTYPRP	-0.398
RRIRMRPPRLPRPRPRPYWHPRP	-0.305
RRIRMRPPRLPRPRPRPYYAPRP	-0.948
RRIRNRPPRLPRPRPRPAAWPRP	0.0193
RRIRNRPPRLPRPRPRPACLPRP	0.146
RRIRNRPPRLPRPRPRPADIPRP	-0.183
RRIRNRPPRLPRPRPRPAFEPRP	0.0155
RRIRNRPPRLPRPRPRPAFLPRP	-0.0726
RRIRNRPPRLPRPRPRPAHKPRP	0.00838
RRIRNRPPRLPRPRPRPAHLPRP	0.256
RRIRNRPPRLPRPRPRPAHVPRP	-0.0508
RRIRNRPPRLPRPRPRPAIGPRP	0.0499
RRIRNRPPRLPRPRPRPAKRPRP	0.27
RRIRNRPPRLPRPRPRPALFPRP	0.177
RRIRNRPPRLPRPRPRPAMDPRP	0.166
RRIRNRPPRLPRPRPRPANGPRP	0.0343
RRIRNRPPRLPRPRPRPANNPRP	-0.0944
RRIRNRPPRLPRPRPRPAPTPRP	0.809
RRIRNRPPRLPRPRPRPAQPPRP	-0.0398
RRIRNRPPRLPRPRPRPARKPRP	0.0797
